Several values for one entry are separate records, joined by “and”; a condition that tells them apart may be missing. Identical values can stand only once.
Legend:
[1] = molecular target: TM-3 1-149; assay: SPR; Proteon XPR36; DARPins immobilised through their N-terminal His-tag on Ni2+-activated tris-NTA (HTG) sensor chip, tubulin injected at five concentrations; 20 °C; buffer of the fluorescence experiments with 20 μM EGTA and 0.005% Tween 20; Langmuir fit; for D1 also KD from the plateau values
TM-3 1-149, sequence (main, as listed by the source): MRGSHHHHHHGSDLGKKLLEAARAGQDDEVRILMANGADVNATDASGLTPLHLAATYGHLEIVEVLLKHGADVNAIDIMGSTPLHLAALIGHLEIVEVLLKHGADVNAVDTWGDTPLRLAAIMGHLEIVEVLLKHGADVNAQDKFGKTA

[2] = molecular target: DARPin D1; assay: as above
DARPin D1, sequence (main, as listed by the source): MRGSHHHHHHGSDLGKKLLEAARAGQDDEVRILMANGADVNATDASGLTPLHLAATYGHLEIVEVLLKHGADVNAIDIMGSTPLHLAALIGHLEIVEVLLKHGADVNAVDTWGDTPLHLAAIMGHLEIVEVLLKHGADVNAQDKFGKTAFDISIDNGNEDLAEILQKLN

[3] = molecular target: acrylodan-labeled D1 (Q26C mutant); assay: fluorescence kinetics (stopped-flow and spectrofluorometer); koff: chase of acrylodan-labeled DARPin from tubulin by excess unlabeled DARPin (stopped-flow for D1, spectrofluorometer for high affinity DARPins), mono-exponential fit; kon: at least 5-fold excess of tubulin added to 50 nM labeled DARPin in a stopped-flow system, pseudo-first-order, slope of kobs against tubulin concentration
[4] = molecular target: acrylodan-labeled TM-3 variant (Q26C mutant); assay: as above
[5] = molecular target: acrylodan-labeled A-C2 (Q26C mutant); assay: as above
[6] = molecular target: subtilisin-digested acrylodan-labeled TM-3 (C-cap-truncated TM-3); assay: as above
[7] = molecular target: acrylodan-labeled D1 (Q26C mutant); assay: other fluorescence titration; fixed acrylodan-labeled DARPin (100 nM D1 or 15 nM high affinity DARPins) titrated with tubulin; 20 mM K-phosphate pH 7.2, 100 mM KCl, 1 mM MgCl2, 0.5 mM EGTA, 10 μM GDP, 20 °C; 1:1 quadratic fit
[8] = molecular target: acrylodan-labeled TM-3 variant (Q26C mutant); assay: as above
[9] = molecular target: acrylodan-labeled A-C2 (Q26C mutant); assay: as above
[10] = molecular target: subtilisin-digested acrylodan-labeled TM-3 (C-cap-truncated TM-3); assay: as above

- Kd [1]: 1.6 nM
- koff [1]: 0.0027 s⁻¹
- kon [1]: 1.7e+06 M⁻¹ s⁻¹
- Kd [2]: 300 nM and 275 nM
- koff [2]: 0.22 s⁻¹
- kon [2]: 800000 M⁻¹ s⁻¹
- Kd [3]: 115 nM
- koff [3]: 1.49 s⁻¹
- kon [3]: 1.3e+07 M⁻¹ s⁻¹
- Kd [4]: 0.269 nM
- koff [4]: 0.0049 s⁻¹
- kon [4]: 1.82e+07 M⁻¹ s⁻¹
- Kd [5]: 0.444 nM
- koff [5]: 0.0071 s⁻¹
- kon [5]: 1.6e+07 M⁻¹ s⁻¹
- Kd [6]: 0.172 nM
- koff [6]: 0.0046 s⁻¹
- kon [6]: 2.67e+07 M⁻¹ s⁻¹
- Kd [7]: 127 nM
- Kd [8]: 0.9 nM
- Kd [9]: 0.82 nM
- Kd [10]: 1.03 nM
Substance: αβ tubulin heterodimer (tubulin) (complex)

Reference: paper PMC4933879
